# Experimental data published in patent US20140287419A1, “Compositions Having Dicamba Decarboxylase Activity and Methods of Use” (priority 2013, published 2014).
# B1: 58 (protein)
# chain: MARVIALEEHYATTEFLRGPGTWLASRPGIVEPAGDLGDGRIAAMDQAGVDLAVLSLAAPGVEQLDPDDAVRLARDCNDQLAAAVRRYPDRLAGFATVPTSAPDRAADELERAVRGLGFPGAVINGHSRGRYLDDPFFEPVLARAAELQAPIYLHPTIPPAGVIESSYAGFAEPVTFALATVGWGWHINTATHALRMILGGVFDRHPSLQMIIGHMGEATSFMLPRFDATLKPELTGLNHPVSSYLRENFHYTFANFNDHATYANLVAQVGIERVAFSADYPFGSMVDARAFLDGLPLSDDERAAISHRNAEKLLGL
# modifications: Mycobacterium colombiense
# B2: 59 (protein)
# chain: MAPSVIDAHAHFLPGSLVTALRSRSDAPDIRTDSNGGESFGIYRTRMPYGRTYDALDVRLARMDELGVDRQILSLPGLFGIDSRPVSQALPLVRAFNDGVADLVRKHPDRFSGIAALPLADLDAAQEEYRRARGDLGLSGLILPGDTFVSVAAAERVRPLFELAATIGGLIFVHPGPLPDETGSAVDAPAPHTDSVVHRRVTVDIQNRMTEVMVTLALTDFLAPYPSVPVQVANLGGSLPFVIERMDHVYALRNPEAPPPSLSLRSLYVDAASLGPRAIALAAEVYGADRVLFGSDYPIFDDGRCLDAVRQTRLSPDARALIAGGNAARMLTQT
# modifications: alpha proteobacterium
# B3: 60 (protein, listed as Catenulispora acidiphila)
# chain: MARGFVRTAVVPGFWDAGWRGAGQPGGMRVDVHAHLFPAAYLDLLDDFRQDGGVGTREVRALGGGDGERELRLRLAAMDAVGVDVQLLSTCPQGPYTGDPTAAVEAARCANVALAQTVAQYPERLRALAALPLPHILASVDELNRAMEQDGMLGAAVGTSILGRPLSHPDFEPLFAALNRRKGVLFVHPIGESAGSPLMQASKLDRVIGYAAEVSTAILQLFQAGLTVKYPDIRIIAPHMGGYLPFLIQRLDRHRDWYLPKDAPSAGQLMRGIAYDTANPLPAALRLTAEVVGPERLLLGTDYPFEQGPSLRDHIEYILAAGLPEAQAKMIVDVNAADFLDMRSGAEQPPV
# B4: 61 (protein, listed as Gordonia amarae)
# chain: MATGAGSGVPSPADRVIVRSPGVIDVHAHAVLPMSLGCAGAAGPEIGYREDGSPFFRVGEYVLNGVRYEGSAFMDPEVRVAAMDAAGIGLQMISPNPITYFTRLDARSATDYARAHNDAIAEAAGRHPGRLVGAAQLPMQDVPAAIAELERSVRELGLVAAYIDTDIGDRTLDAPELDDFYSAAVELDVPVFIHPSPVGQEGPPDDTRLRRFDLDLLLGFSYDETLAVAALVFGGVLERHPALDVCLSHGGGTLAFVAGRFARAVAKPRAWVPEFLVENGIESYLRRLWLDTHVHSAGSLRLLIDTVGTDRLVFGTNFAGWDADGATEVDALGDLRETTTANAAHLLRLGRA
# B5: 4 (protein, listed as Lactobacillus buchneri)
# chain: MAKVITLEEHFSSQKLGQKMAEVLPKRPIGNVSPKMQDYMQRSLPPEAELEDVTGSRIQWMDQHQISMQILSYGNQNPQNSDPKFAVELTKLANDELAKAVAKAPDRFRAFASLPVSHPTDAAAELKRGVEELGFKGAMLVRPTSQAHPFFDDPFYLPIFEAAANLNVPVYLHPSFPDSQIIDYYYSNGPWDDKVSGILGTAGYGWHTDVGIQTVRLLLSGVFEKYPNLKLISGHWGEFASFALERMDQVMYPETNLSEPISKIYRDHVYVTPSGILTEPQLKFVKDEVGIEHLLYSIDYPYIKPENSGSFIESSPLTDEEKELFAHGNAEKLLQL
# B6: 62 (protein)
# chain: MAVGGKNFRDVTDQVWCPKKRIEDMDREGVDIQVLSPIPVTFSYWAKPEEAESMARIQNDFIAETVLAYPDRFVGLGTVPMQDGETAIREMERCITELNLHGIEIGTNVNGKNLDDPSFIEFFRMAEKWQVPIFIHPWETLGRDRMPHHNFMYTVGMPSETALAAATLIWSGIMEKFPRLKVCFAHGGGSFPYILPRLDQGWKVWPHLRLTTHPPSYYAKKFYFDSLNYDPINLKYMIERFGHEKIFMGSDYPFLLREVDPGKVIDETASLSEEQKAAMLGGNAAEFLNIDIKKRGVAYAESTNT
# modifications: Bacillus thuringiensis serovar pulsiensis
# B7: 64 (protein, listed as Achromobacter piechaudii)
# chain: MAIQKIDMHAHFFPPITRQEAAALDPVNAPWLRPDADGATGQIMAGEREFRPVDATLWDPALRIEQMDRHGVDVQILCATPIMFGYTYPARPAADWAARMNDLALEHCAYAPSRLKALAQVPLQDLELACQEASRARAAGHLGVQIGNHVGPRDLDDETLVQFLIHCANNDIPVLVHPWDMMTDGRMKKWMLPWLVSMPAETQLGILSLILSGAFERIPRSLKLCFAHGGGSFAYLLGRVDNAWRHRDIIRQDCPQLPSSYTDRFYTDSAVFDPRSLRLLIDVMGEDRVLLGSDYPYPLGEQEVGRLVAHAELVPEVQQKILFRNTMTFFGLQPGLQPGLQS
# B8: 68 (protein, listed as Hoeflea phototrophica)
# chain: MAIIDAHTHTLCPAVNEKVAGTIKPDSVPYQRDMSPESKEQDHTQFPELKIMFNQVERRLADMARMGIDRQVIAPAPGQQHYWAEPKLLAEISALQNDHVAELVARAPDRFAGIGTLPMTDPDAAVAEITRATRELGLRVFQIDSRVMERELSDASLDPIYAALEAAGAGLMIHPLGFSNGERLTPFFMVNSVAQPLEELLAFNHLVFGGVLDRFPKLKVYIAHGGGFAPFYIGRFDHAWKVRPEVNRLTPSAPSTYLRRIYFDTCVYRTDHIETLVRTVGADRVMLGSDYPFDMGDTDPLGLLNACQGLSDDEKATISSKVAIDFFGLET
# B9: 69 (protein, listed as Microbacterium testaceum)
# chain: MATSTEGQDVTDVHAHLLMPGLHAEVERRVPDEVQAAADLELRRNGLASLQASGRMIGERFPRLTDVRARLAAMDEQGVDRQWVSPSPNHFYPWANEGLATWASGEANRLIAEHVALAPDRLVGLGVVPLQHPHLVVDALDDAVLGRGLAGVEISSFAGDVELSDERLESFWARAAELRAVVFLHPFGCSLDERLDRFYLSNTVGQPTENAVALSHLIFSGVLDRHPGLRLIAAHGGGYLPTAIGRSDRAWRVRPEARGCAHAPSTYLSKLWFDTVVHDERALRWLVEAAGADRVLLGSDFPFDMGLDDPVAFVRGAGLQDAEVSGILGGNAAELLRTRVHA
# B10: 5 (protein, listed as Staphylococcus aureus)
# chain: MAQNNMEANQMKSITFEEHYVIEDIQKETMNAISADPKGVPMKVMLEGLEKKTGFTNADELSHHDERIQFMNNQDVQIQVLSYGNGSPSNLVGQKAIELCQKANDQLANYIAQYPNRFVGFATLPINEPEAAAREFERCINDLGFKGALIMGRAQDGFLDQDKYDIIFKTAENLGVPIYLHPAPVNSDIYQSYYKGNYPEVTAATFACFGYGWHIDVGIHAIHLVLSGIFDRYPKLNMIIGHWGEFIPFFLERMDEALFAEHLNHPVSYYFKNNFYITPSGMLTKPQFDLVKKEAGIDRILYAADYPYIEPEKLGVFLDELGLTDEEKEKISYTNGAKLLGLSSNN
# B11: 70 (protein, listed as Alicyclobacillus acidocaldarius)
# chain: MAIEPNRAADVHTHFLPTEVLEFLKREPRIQVDLERRAPDKEPFLTVEGRWSFELKRMFVDFEAFASAYRQAGIGLALVSPLPQLFVYHLPAEMGAQVAEVYNDALRDVLAPHRERFRPLATLPLADPTAAARELERRMDEGFVGAIVGPGVGEALIGDEAFWPLWEVADARRAVLFLHPLLHADPRAARLMLPNLVGVPWETTLAAAHLVLSGLLDRYPGARVLLAHGGGFLPYQIGRIEQGYDVWPQVRGRLQDRPTAYLRRMFYDNVLWSDAALRCLIDVVGADRVLAGSDFPFDLSAWPPRPGADVSVLAGGSGREGRLS
# B12: 71 (protein, listed as Burkholderia dolosa)
# chain: MARAGHRAARTRQSRPGDRTMTCSCCMSAGRRRVLGAFAALAGAPKGPRAASAAQPAAASKPTRGDATARNRHSRALLPGKASASWSATKASGSGGAFAWDDTTFTFRTPAGGLGPLPMKFIDVDARLRDMDASGVDVQALSLSVPMAYWGDRPFNAKLARAWNTAASRVHVRAPDRFVVLATLPMLDATDAIDELERASELPGVRGVYMGTNIDNRDLDDPRFAPVFARIEQLGLPVFLHPQQTVGGARLGDFYLSNLLGNPFDTAIAASHLILGGVLDRHPALHFTLPHAGGALPILVGRLDAGWTVRAETRRLAHQPSGYLRRFSYDTVSHSGPVLNFLIENVGIDRLVLGSDYCFDMGYEQPVRFLDRLDLTPDERAMVIGGNAGRLLRI
# B13: 72 (protein)
# chain: MADCPCCVSPKRRRLLGSVSAIAAGMMAGLPALAAQPSTAAAGTGKPLSIDIHAHYYSESFLGLLGGEGKQFGGHFFRNDDSFTFQTPAGGLGPLPMKFIDVEQRVRDMDNSGVDVQAISLSVPMVYWADRTLNAKLARAWNTAASDVHRKHPTRFVVLATLPMLNANDAIDELEFAAGLPGVRGIYMGTNINNRDLDDPLFSPIFKRIEQLNLPIFLHPQQTVGGARLADFYLSNLLGNPFDTAIAASHLILGGVLDKYPALHFSLPHAGGALPILVGRIDAGWSMRSETKRVAQKPSSYLRRFSYDTISHSGPTLDFLIRNIGADRLVLGSDYCFDMGYEQPVRFLDRLALPDDQKRMVVGGNAARLLNL
# modifications: Cupriavidus necator
# B14: 73 (protein, listed as Sphaerobacter thermophilus)
# chain: MARIDAHAHAQPPEYLDALLASGRYESVRDAEGRIVVRERGSRFLTITPQMHHPEQRVAEMDEAGIDMQILSVTTPQVYFLQGQAAVDLARRCNDYLADIVRSYPTRFRALASVPLTADPDAAVREFVRCLDDLGMVGAIIGSNIDGRPIDDPAFDAFYAEADRRATTLFIHPMVPAGIEVMNPYALAPLVGFMFDTTLAVSRLIFSGFFERYPRVKVLVGHLGAAVPYLAGRLDIGWRSYSDCQGIPHPPTEYIRRLYLDTVSFHAPALRCALETVGPDRIVFGSDYPHVIGDVGGAIASIQQALPATTHDGVLGHTAAELFGVSA
# Experiment: 14C assay with IPTG-induced recombinant E. coli cells (14CO2 capture from [14C]-carboxyl-labeled dicamba)
# Details: IPTG-induced recombinant E. coli cells; [14C]-carboxyl-labeled dicamba; 14CO2 capture
row,Molecule,Dicamba Decarboxylase Activity
1,B1,High
2,B2,No
3,B3,No
4,B4,No
5,B5,High
6,B6,No
7,B7,Low
8,B8,No
9,B9,No
10,B10,High
11,B11,Low
12,B12,Low
13,B13,Low
14,B14,Low

# Same assay, conditions: dicamba decarboxylation activity of the protein of the given SEQ ID NO
row,Molecule,Enzymatic Detection level
1,B1,High
2,B2,No
3,B3,No
4,B4,No
5,B5,High
6,B6,No
7,B7,Low
8,B8,No
9,B9,No
10,B10,High
11,B11,Low
12,B12,Low
13,B13,Low
14,B14,Low
